Target: T1, CCR5 (G-protein coupled chemokine receptor) on human PBMC (human, UniProt P51681 1-352)
T1 construct: whole, on cells; The cells were primary PBMC, not transfectants, so the receptor is assigned through the CCR5 agonist MIP-1β; also called G-protein Chemokine Receptor CCR5
Experiment: 125I-MIP-1β competition binding on human PBMC cultured 2 days; labelled competitor 0.17 nM 125I-MIP-1β; cells preincubated with supernatant 45 min at 37 °C, then hot ligand 60 min at RT; cell pellet collected by density centrifugation through oil; readout cpm
Procedure: Human PBMC were purified from whole blood and cultured for 2 days. […] After 60 minutes, cell bound ¹²⁵I-MIP-1 was separated from unbound ¹²⁵I-MIP-1, and the radioactivity determined.
PBMCs were grown, purified, and suspended in calcium buffer as described above in Example 49.

T1 sequence (P51681 whole entry): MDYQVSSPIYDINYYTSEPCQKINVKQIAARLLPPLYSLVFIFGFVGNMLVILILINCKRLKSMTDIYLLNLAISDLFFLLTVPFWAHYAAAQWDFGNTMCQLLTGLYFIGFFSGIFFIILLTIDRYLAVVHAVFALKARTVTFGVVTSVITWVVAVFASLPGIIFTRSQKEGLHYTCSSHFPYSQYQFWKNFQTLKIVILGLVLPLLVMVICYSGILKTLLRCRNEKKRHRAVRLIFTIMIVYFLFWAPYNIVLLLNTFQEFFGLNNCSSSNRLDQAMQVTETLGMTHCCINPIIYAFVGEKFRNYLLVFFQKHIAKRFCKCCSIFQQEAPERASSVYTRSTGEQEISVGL

B1: Ckb1 construct 1832 (pC4:MPIFsp.CKB1(G28-N93)), secreted product ck-beta-1 G28-N93 (ligand)
chain: GPYHPSECCFTYTTYKIPRQRIMDYYETNSQCSKPGIVFITKRGHSVCTNPSDKWVQDYIKDMKEN
notes: Non-fusion Ckb1, expressed in mammalian cells from pC4
B1: binds.
